US20030148973A1, “MAGE-A1 peptides for treating or preventing cancer” (priority 2001, published 2003)

Molecular target: T1, HLA-A0201 molecules on T2 cells (Homo sapiens, UniProt P04439, D140Y/D185E/D98H/E176V/E277Q/G131W/G231S/I119V/I121R/I166T/I218V/L300P/L318F/N151K/N90K/P208A/P217A/Q86G/Q94H/R138H/R169H/T345S)
T1 construct: endogenous in cells; host or cells: T2 cell line (from Dr. Peter Creswell, Yale University)
Test: Binding and stabilization of surface HLA-A0201 on T2 cells (BB7.2 antibody, flow cytometry)
Conditions: 20 μg peptide pulsed onto 10^6 denatured T2 cells, 4 hours at 26° C.; BB7.2 binding detected with FITC conjugate
Experimental: The ability of the MAGE-A1 derived peptides to be presented in the context of HLA-A2 was determined by the ability of such peptides stabilize membrane-bound HLA-A0201 molecules The T2 cell line (Dr. Peter Creswell, Yale University) has been well documented to have a defective TAP (e.g. Transporter for Antigen Processing) transporter function. As a result, the majority of intracellularly generated peptides are not transported into the endoplasmic reticulum and thus are unable to associate with newly synthesized HLA class 1 MHC molecules (e.g. HLA-A0201; Salter, R D and Creswell, P. (1986) EMBO J 5:943). […] The stability of the surface HLA-A0201 molecules can be restored upon interaction with suitable exogenous peptides. […]
In order to determine whether the identified nonapeptides can be presented by HLA-A0201, T2 cells were propagated in RPMI complete medium (RPMI medium supplemented with 10% heat-inactivated bovine serum, 120.0 units per ml of penicillin G sodium, 120 μg per ml of streptomycin sulphate, and 0.35 mg per ml of L-glutamine). The ability of MAGE-A1 derived peptides to bind and stabilize surface HLA-A0201 molecules on T2 cells was determined utilizing a standard protocol (Deng, Y. (1997) J Immunol 158:1507-1515). […] The binding of BB7.2 was detected via the addition of 1.0 μg per test of goat anti-mouse IgG-Fc fluorescein (FITC) conjugate (BETHYL Laboratories Inc). […]

Sequence: CLGLSYDGL (listed as Homo sapiens) [MAGE-A1 174]
- Fluorescence Index (FI): 1.73
